Assay [1] deals with induction of MSCs having the ability to differentiate into adipocytes. Put plainly: Ability to differentiate into adipocytes (Examples 14, 16). Type of assay: cell-based, mouse. Particulars: Example 16, FIG. 10B/40B; antibody 2.5-20.0 μg/ml. The method, then:
The antibody clone (#6-55, #7, #10, #13, or […]) was evaluated for its activity by the same testing method as in Example 13. #6-55 was set as a positive control for activity. […] Mouse bone marrow cells were supplemented with FSTL1 and the predetermined concentration of each antibody and cultured for 8 days. 5×10^4 cells/well were separated from each culture system and evaluated for the ability to differentiate into adipocytes using an adipocyte differentiation reagent included in “Mesenchymal Stem Cell Functional Identification Kit (R&D Systems, Inc., Cat. No. SC010)”. For the evaluation method, the cells were supplemented with the adipocyte differentiation reagent and cultured for 8 days. Then, adipocytes per culture system were counted under a microscope for evaluation. […]
In the same way as in Example 15, mouse bone marrow cells were supplemented with FSTL1 and the predetermined concentration of each antibody and cultured for 8 days. 5×10^4 cells/well were separated from each culture system and evaluated for the ability to differentiate into adipocytes using an adipocyte differentiation reagent included in “Mesenchymal Stem Cell Functional Identification Kit (R&D Systems, Inc., Cat. No. SC010)”. […] Then, adipocytes per culture system were counted under a microscope for evaluation (FIG. 10B). […]

The subject of assay [2] is mouse colorectal cancer CT26 cell-transplanted models. Nature of the assay: In vivo colorectal cancer model (Example 20). Set-up: species or system BALB/c mice. Particulars: intraperitoneal 10 mg/kg on days 4 and 7. The method, then:
(§1) Procedures and methods of the experiment were basically performed under substantially the same conditions as in the bone metastasis model experiments of Examples 17 to 19 except that bone metastasis was not evaluated. Specifically, drug efficacy evaluation was conducted using mouse tumor models other than Snail-positive tumor bone metastasis models. The drug efficacy of the anti-FSTL1 antibody was evaluated using cancer-bearing models of BALB/c mice different in strain from the C57BL/6 mice used in the preceding tests. The test was conducted by changing only the amount of tumor implanted, antibody administration timing, and assay timing. • Day 0: transplantation of tumor cells (5×10^5 cells subcutaneously & 5×10^5 cells intravenously) Days 4 and 7: intraperitoneal administration of the antibody (10 mg/kg) • Day 14: drug efficacy evaluation (subcutaneous tumor growth (FIG. 14A) and lung metastasis (FIG. 14B))
(§2) For lung metastasis, the number of metastatic nodules in the lung was macroscopically counted. The tumor volumes of the mice were measured 7, 11, and 14 days after tumor implantation.

The subject of assay [3] is mouse breast cancer 4T1 cell-transplanted models. Put plainly: In vivo breast cancer model (Example 21). Also noted: species or system BALB/c mice. Particulars: intraperitoneal 10 mg/kg on days 4 and 7; day 14. The method, then: as §1, with “performed according to Examples 17 to 20” for “performed”, “20. Drug” for “19 except that bone metastasis was not evaluated. Specifically, drug”, “Changes were made as follows.” for “The test was conducted by changing only the amount of tumor implanted, antibody administration timing, and assay timing.”, “growth)” for “growth (FIG. 14A) and lung metastasis (FIG. 14B))”
(§3) The tumor volumes of the mice were measured 4, 7, 11, and 14 days after tumor implantation.

Assay [4] relates to Panc1, Panc1-snail+, MIAPaCa, MDA231, Hs294T. Nature of the assay: Proliferative capacity and invasive capacity of various human tumor cells (Example 26). It is filed as cell-based. Particulars: antibody 5 μg/ml; 3 days culture; Matrigel transwell 4 hours. How it is done: Specifically, the influence of the anti-FSTL1 antibody on proliferative capacity and invasive capacity was studied using various human tumor cells, regardless of the presence or absence of the expression of Snail or FSTL1. Specifically, the anti-FSTL1 antibody (#6-55, 5 μg/ml) or a control antibody (aHema: mouse chimeric anti-hemagglutinin antibody, 5 μg/ml) was added to systems in which a pancreatic cancer cell line Panc1 (ATCC #CRL-1469), Panc1-snail+ which is a Panc1 cell line forced to express Snail, a pancreatic cancer cell line MIAPaCa (ATCC #CRL-1420), a bone metastatic breast cancer cell line MDA231 (ATCC #HTB-26), and a melanoma cell line Hs294T (ATCC #HTB-140) were each cultured at 1×10^5 cells. After culture for 3 days, the number of cells per culture system was counted to evaluate the proliferative capacity of the cells. The cells (5×10^4 cells) after the counting were further inoculated to Matrigel-coated transwell chamber (Corning Inc. #354480) and cultured for 4 hours. Then, the membranes were removed, and stained and fixed with Crystal Violet fixative. Then, the number of cells that permeated the membranes was counted under a microscope to evaluate the invasive capacity of the cells.

The subject of assay [5] is mouse colorectal cancer CT26 cells. Put plainly: In vivo, mouse colorectal cancer CT26 cell-transplanted model (Example 20). Particulars: intraperitoneal 10 mg/kg on days 4 and 7. How it is done: as §1, with “44A)” for “14A)”, “44B))” for “14B))”
as §2
as §1, with “intravenously) •” for “intravenously)”, “76A)” for “14A)”, “76B))” for “14B))”

The subject of assay [6] is mouse breast cancer 4T1 cells. Nature of the assay: In vivo, mouse breast cancer 4T1 cell-transplanted model (Example 21). Particulars: BALB/c mice; intraperitoneal 10 mg/kg on days 4 and 7. The method, then: as §1, with “performed according to Examples 17 to 20” for “performed”, “20. Drug” for “19 except that bone metastasis was not evaluated. Specifically, drug”, “Changes were made as follows.” for “The test was conducted by changing only the amount of tumor implanted, antibody administration timing, and assay timing.”, “growth)” for “growth (FIG. 14A) and lung metastasis (FIG. 14B))”
as §3

Entries after “also recorded” stand apart in the source; their conditions may differ.

B1: #6-55: chicken-mouse chimeric anti-FSTL1 antibody clone; variable regions SEQ ID NO: 783 (light), 785 (heavy) (antibody, V domains shown)
VH: AVTLDESGGGLQTPGGALSLVCKGSGFTFTSVTMQWVRQAPGKGLEWVASVCSGSSTYYAPAVKGRATISRDNGQSTVRLQLSNLRPEDTGTYYCAKIAGRARWSCTSAAYNIDAWGHGTEVIVSS
VL: ASTQPSSVSAIPGETVKITCSGGGNNYGWYQQRSPGSAPVTVIYYNDNRPSNIPSRFSGSTSGSTSTLTITGVQADDEAIYYCGSWDSNTDSGIFGAGTTLTVL
modifications: mouse constant regions
For the molecule B1, the “differentiation into adipocytes (induction of MSCs having the ability to differentiate into adipocytes)” value in assay [1] is reported as “inhibited by #6-55 in an antibody dose-dependent manner; also recorded: cells differentiating into adipocytes decreased in number by the addition of #6-55 in a dose-dependent manner”. Moreover, the “growth and lung metastasis of CT26 subcutaneous tumor” value in assay [2] (day 14) is “very strongly suppressed the growth and lung metastasis of CT26 subcutaneous tumor”. In assay [2] (n=5), the “solid tumor disappearance (mice)” value is “three out of the five mice”. For the same molecule, the “growth of 4T1 subcutaneous tumor” value in assay [3] and in assay [6] was “significantly suppressed” throughout. The “proliferative capacity and invasive capacity of tumor cells” value in assay [4] is “both proliferative capacity and invasive capacity were strongly suppressed, particularly, in a highly metastatic tumor cell line highly expressing Snail”. Moreover, the “growth of CT26 subcutaneous tumor” value in assay [5] (BALB/c mice) is recorded as “very strongly suppressed”. For the same molecule, the “lung metastasis of CT26 tumor” value in assay [5] (BALB/c mice, day 14) is given as “very strongly suppressed”. Besides, in assay [5] (n=5), the “mice in which solid tumor disappeared” value is reported as “three out of the five mice”.
